Reference: US20240247072A1 (KEYMED BIOSCIENCES, published 2024)
Residue numbers refer to the chain shown, from its start.

T1: recombinant trimeric protein of human CD70 extracellular region (human CD70 mIgG Fc (knob) / mouse IgG Fc … (human, UniProt P01863 98-330 = IgG part))
T1 construct: The ELISA and Octet texts say only 'recombinant CD70 protein' / 'CM352 antigen'; also called recombinant human CD70 protein; recombinant CD70 protein
T1 chain 1: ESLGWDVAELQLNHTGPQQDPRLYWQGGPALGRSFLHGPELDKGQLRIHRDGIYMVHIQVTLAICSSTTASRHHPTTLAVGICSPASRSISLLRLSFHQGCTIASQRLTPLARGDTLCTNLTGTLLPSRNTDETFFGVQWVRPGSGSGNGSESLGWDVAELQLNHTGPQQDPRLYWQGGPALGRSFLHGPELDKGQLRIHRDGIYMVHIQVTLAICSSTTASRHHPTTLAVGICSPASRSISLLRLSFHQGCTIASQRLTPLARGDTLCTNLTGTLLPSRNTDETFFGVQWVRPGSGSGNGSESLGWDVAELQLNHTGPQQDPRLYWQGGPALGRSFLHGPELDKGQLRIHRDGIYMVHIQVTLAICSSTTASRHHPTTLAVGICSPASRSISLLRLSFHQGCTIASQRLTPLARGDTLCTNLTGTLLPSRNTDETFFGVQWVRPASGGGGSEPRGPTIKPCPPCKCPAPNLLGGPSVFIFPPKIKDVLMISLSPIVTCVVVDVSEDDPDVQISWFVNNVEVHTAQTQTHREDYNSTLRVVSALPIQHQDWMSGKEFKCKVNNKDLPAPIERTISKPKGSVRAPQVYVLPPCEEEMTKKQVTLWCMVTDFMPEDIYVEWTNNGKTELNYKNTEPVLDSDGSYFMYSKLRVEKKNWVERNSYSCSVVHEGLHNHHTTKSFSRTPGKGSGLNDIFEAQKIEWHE
T1 chain 2: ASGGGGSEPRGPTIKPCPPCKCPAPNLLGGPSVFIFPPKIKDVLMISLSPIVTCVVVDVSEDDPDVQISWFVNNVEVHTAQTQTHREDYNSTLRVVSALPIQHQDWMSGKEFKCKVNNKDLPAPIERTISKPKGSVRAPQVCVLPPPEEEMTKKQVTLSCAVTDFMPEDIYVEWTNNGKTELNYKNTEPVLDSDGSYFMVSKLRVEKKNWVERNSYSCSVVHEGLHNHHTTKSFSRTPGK

T2: human CD70, full length, on CHO cells (CHO-human CD70-B07) (human, UniProt P32970 1-193)
T2 construct: whole, on cells; Stably transfected CHO cells; also called CHO-CD70
T2 sequence (looked up): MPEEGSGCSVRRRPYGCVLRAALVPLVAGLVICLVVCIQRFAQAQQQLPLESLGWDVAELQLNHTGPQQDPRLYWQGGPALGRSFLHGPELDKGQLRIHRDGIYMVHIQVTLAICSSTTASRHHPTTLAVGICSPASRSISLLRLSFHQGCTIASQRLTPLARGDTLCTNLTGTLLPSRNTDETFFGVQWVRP

B1: 27A3 chimeric antibody (antibody, V domains shown)
VH: EVQLQESGPGLVQPSQSLSITCTVSGFSLTTYAVHWVRQSPGKGLEWLGVIWSTGITDYNADFISRLSISKDNSKSQVFFKMDSLQSDDTAIYFCARNHYYGNLNAMDYWGQGTSVTVSS
VL: DIVLTQSPASLAVSLGQRATISCRASKSVSTSGYSFMHWYQQKPGQPPKLLIYLASNLESGVPARFSGSGSGTDFTLNIHPVEEEDAATYYCQHSRELPYTFGGGTKLEIK
B2: 14C12 chimeric antibody (antibody, V domains shown)
VH: EVQLQQSGPELVKPGASVKMSCKASGYTFTDYVIHWVKQKPGQGLEWIGYLHPYNDDTKYNEKFKGKATLTSDKSSSTAYMELSSLTSEDSAVYYCARRGYYDYAWFADWGQGTLVTVSA
VL: B1 VL with T31A, S35T, F36W, M37I, G45R, P47A, Y100P
B3: 2B12 chimeric antibody (antibody, V domains shown)
VH: B1 VH with E1Q, E6Q, D62A, D83N, T90I, F94Y, H99P
VL: B1 VL with S30D, Y100L, G104A, I110L
B4: 32D1 chimeric antibody (antibody, V domains shown)
VH: B2 VH with V18L, S84N
VL: B1 VL with R24K, T31A, S35T, F36W, P47A, Y100P
B5: 36E7-D6 hybridoma antibody (antibody, V domains shown)
VH: QVQLKQSGPGLVQPSQSLSITCTVSDFSLTIFGVHWVRQSPGKGLEWLGVIWRDGSTDYNAALMSRLNITKDNSKSQVFFKMNSLQTDDTAIYYCAKNRRYDYAWFPYWGQGTLVSVSA
VL: B1 VL with T31A, M37L, A55T, E97D, L98F, Y100P, G104A, I110L
notes: Mouse antibody in hybridoma culture supernatant
B6: 16J15-H3 hybridoma antibody (antibody, V domains shown)
VH: QVQLKQSGPGLVQPSQSLSITCTVSNFSLSTYGVHWVRQSPGKGLEWLGVIWGGGYTDYNAAFISRLTISKDNSKSQVFFKMNSLQADDTAIYYCARNNYYGNLYAMDYWGQGTSVTVSS
VL: B1 VL with A12P, S26N, T31A, E59D, A87T, L98F, Y100L, G104A, I110L
notes: as for B5
B7: 10C19-D11 hybridoma antibody (antibody, V domains shown)
VH: QVQLQQSGPGLVQPSQSLSITCTVSGFSLTTYAVHWFRQSPGQGLEWLGVIWSTGITDFNAAFISRLNINKDSSKSQIFFKMISLQPNDTAIYYCGRNSYYGNLYAMDYWGQGTSVTVSS
VL: B1 VL with A9T, T31A, S35N, G72E, E85G, Y100L, G104A, I110L
notes: as for B5
B8: 1H21-D5 hybridoma antibody (antibody, V domains shown)
VH: QVQLKQSGPGLVQPSQSLSITCTVSGFSLTSYGIHWVRQSPGKGLEWLGVIWSGGSTDFNAAFISRLSISKDNSKSQVFFKVISLQANDTAIYYCGRNSYYGNLYAMDYWGQGTSVTVSS
VL: B1 VL with A9T, T31A, Y100L, G104A, I110L
notes: as for B5
B9: 17A9-G5 hybridoma antibody (antibody, V domains shown)
VH: B6 VH with N26G, S30T, G53S, G54A, Y56I, A62P, T68S, S70T, N99D
VL: B1 VL with S26N, T31A, S35T, A55V, E59A, E84G, L98F, Y100L, G104A, I110L
notes: as for B5
B10: 42H19-G4 hybridoma antibody (antibody, V domains shown)
VH: B5 VH with L11P, V34I, A61V
VL: B1 VL with T31A, M37L, A55T, E97D, L98F, Y100P, G104A, I110L
notes: as for B5
B11: 4H6-A6 hybridoma antibody (antibody, V domains shown)
VH: QVQLKQSGPGLVQPSQKLSITCTVSGFSLTTYGVHWIRQSPVKGLEWLGVIWTTGVVDYNAAFISRLNITKDNSKSQIFFKMNSLQTNDTAMYYCARNSYYGNLYVMDYWGQGTSVTVSS
VL: DIVLTQSPASLPIFLGQRATISCRASRSVSASGYTFMHWYQQKPGQPPKLLIYLVSNLESGVPARFSGSGSGTDFTLNIHPVEEEDAATYYCQHSREFPLTFGAGTKLELK
notes: as for B5

Biological target: T1, recombinant trimeric protein of human …
Test: competition ELISA, chimeric IgG titrated, CD27 coated, biotin-CD70, human pair
Procedure: The recombinant CD27 protein was coated at 1 μg/mL in a 96-well microtiter plate and incubated overnight at 4° C. The next day, the plate was washed 3 times with PBS, added with 200 μL of 2% defatted dry milk/PBS, blocked at room temperature for 2 hours, and washed once with PBS. The purified chimeric antibody was divided to 12 concentration gradients starting at 100 nM and diluted in a 1:3 gradient. […] of the antibody was added per well and incubated at room temperature for 30 minutes. […] The plate was washed 3 times with PBST and PBS and dried by spinning. A secondary antibody Streptavidin-coupled horseradish peroxidase SA-HRP (BD bioscience, cat. No: 6222697) was diluted with 0.5% BSA in a ratio of 1:8000. 100 μL of the diluent was added into each well and incubated at room temperature for 30 minutes. The plate was washed 3 times with PBST and PBS and dried by spinning. 100 μl of color development solution (TMB solution, Sigma, Cat. No: T2885) was added into each well and protected from light at 37° C. for reaction. After the substrate developed moderately, 50 μl of H₂SO₄ was added into each well to terminate the reaction. The OD450 nm was determined by using an enzyme-linked detector within 30 minutes, and the data was collected. The results were calculated by using Graph Pad Prism 5 software.

IC50	Binder
0.08 nM	B1
0.1 nM	B2
0.11 nM	B3
0.1 nM	B4

biological target: T2, human CD70, full length, on CHO cells …; test: flow cytometry, chimeric IgG on CHO-human CD70 cells
Procedure: Different cells in logarithmic growth phase were taken, blocked with 3% BSA for 30 minutes, and plated to a 96-well U-plate at 5×10⁴ cells/100 μL. The centrifuge was performed at 1100 rpm for 3 minutes. The supernatant was discarded and the cells were gently tapped to be loosening. 50 μL of gradient diluted antibody was added (antibody concentration: from 30 μg/mL, 3-fold dilution for 5 gradients) per well, and incubated at 4° C. for 1 hour. After incubation, 180 μL of 0.5% BSA was added to each well for washing 3 times. 30 μL/well of secondary antibody AlexaFluro647 anti-human IgG (Jackson Immuno Research, Cat. No: 109-606-170) was added and incubated at 4° C. for 45 minutes. At the end of the incubation, each well was washed 3 times with 180 μL of 0.5% BSA and finally resuspended in 50 μL of PBS for iQue (Intellicyt, USA) assay.

EC50	Binder
4.07 nM	B1
15 nM	B2
17.7 nM	B3
12.1 nM	B4

Biological target: T1, recombinant trimeric protein of human …
Test: ELISA binding, hybridoma supernatant, human CD70

binding result	Binder
binds	B5
binds	B6
binds	B7
binds	B8
binds	B9
binds	B10
binds	B11

biological target: T2, human CD70, full length, on CHO cells …; test: flow cytometry, hybridoma supernatant, cell surface human CD70

binding result	Binder
binds	B5
binds	B6
binds	B7
binds	B8
binds	B9
binds	B10
binds	B11
